We go through 5 molecules from PMC3461841 (Journal of molecular biology, 2012).

Usually Kd stands for the concentration at which binding is half-saturated.

Series [1] has as its target T1, hDcr-C (RNase IIIa, IIIb, dsRBD) (Homo sapiens, UniProt Q9UPY3 1235-1922).
T1 sequence: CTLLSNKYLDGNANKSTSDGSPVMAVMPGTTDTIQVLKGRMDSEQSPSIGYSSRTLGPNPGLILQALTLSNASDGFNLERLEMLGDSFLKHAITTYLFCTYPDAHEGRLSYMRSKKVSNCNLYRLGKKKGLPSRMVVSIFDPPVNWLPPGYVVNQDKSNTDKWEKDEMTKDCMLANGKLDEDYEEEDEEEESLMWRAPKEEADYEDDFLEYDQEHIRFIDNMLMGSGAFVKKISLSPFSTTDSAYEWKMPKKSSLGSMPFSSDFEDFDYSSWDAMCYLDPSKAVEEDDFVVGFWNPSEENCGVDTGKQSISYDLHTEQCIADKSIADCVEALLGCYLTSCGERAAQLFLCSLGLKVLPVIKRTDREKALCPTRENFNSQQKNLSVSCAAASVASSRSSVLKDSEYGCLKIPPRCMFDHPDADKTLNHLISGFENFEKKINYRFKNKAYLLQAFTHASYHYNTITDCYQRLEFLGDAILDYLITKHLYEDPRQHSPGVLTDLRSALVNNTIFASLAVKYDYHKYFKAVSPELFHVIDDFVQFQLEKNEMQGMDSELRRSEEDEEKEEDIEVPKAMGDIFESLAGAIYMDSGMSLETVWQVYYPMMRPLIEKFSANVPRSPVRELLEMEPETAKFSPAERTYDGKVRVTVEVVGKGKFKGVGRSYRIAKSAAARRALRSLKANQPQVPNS
Nature of the series: filter binding.

Series [2] addresses FL-hDicer (full-length human Dicer) (Homo sapiens, UniProt Q9UPY3 1-1922). Nature of the series: filter binding.
Another series concerns the target T2, MBP-ATPase/hel (Homo sapiens, UniProt Q9UPY3 1-604).
T2 sequence: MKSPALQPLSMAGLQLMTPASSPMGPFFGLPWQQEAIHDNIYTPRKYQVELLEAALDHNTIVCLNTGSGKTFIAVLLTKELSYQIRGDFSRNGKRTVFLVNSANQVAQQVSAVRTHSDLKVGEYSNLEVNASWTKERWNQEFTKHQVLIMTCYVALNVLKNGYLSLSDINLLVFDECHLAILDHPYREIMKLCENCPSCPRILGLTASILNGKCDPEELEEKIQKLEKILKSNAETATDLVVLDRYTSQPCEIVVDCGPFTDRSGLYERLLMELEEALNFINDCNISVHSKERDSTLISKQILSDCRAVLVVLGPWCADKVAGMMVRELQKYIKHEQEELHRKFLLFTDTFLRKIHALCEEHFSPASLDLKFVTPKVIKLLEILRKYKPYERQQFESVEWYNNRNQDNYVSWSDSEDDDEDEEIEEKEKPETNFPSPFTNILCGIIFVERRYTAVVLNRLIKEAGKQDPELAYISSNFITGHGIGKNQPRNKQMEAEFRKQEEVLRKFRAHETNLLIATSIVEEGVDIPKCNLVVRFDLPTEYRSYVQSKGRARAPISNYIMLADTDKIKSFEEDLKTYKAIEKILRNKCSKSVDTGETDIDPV
The series can be described thus: filter binding.

Another series deals with T3, DP (DUF283-PAZ) (Homo sapiens, UniProt Q9UPY3 605-1068).
T3 sequence: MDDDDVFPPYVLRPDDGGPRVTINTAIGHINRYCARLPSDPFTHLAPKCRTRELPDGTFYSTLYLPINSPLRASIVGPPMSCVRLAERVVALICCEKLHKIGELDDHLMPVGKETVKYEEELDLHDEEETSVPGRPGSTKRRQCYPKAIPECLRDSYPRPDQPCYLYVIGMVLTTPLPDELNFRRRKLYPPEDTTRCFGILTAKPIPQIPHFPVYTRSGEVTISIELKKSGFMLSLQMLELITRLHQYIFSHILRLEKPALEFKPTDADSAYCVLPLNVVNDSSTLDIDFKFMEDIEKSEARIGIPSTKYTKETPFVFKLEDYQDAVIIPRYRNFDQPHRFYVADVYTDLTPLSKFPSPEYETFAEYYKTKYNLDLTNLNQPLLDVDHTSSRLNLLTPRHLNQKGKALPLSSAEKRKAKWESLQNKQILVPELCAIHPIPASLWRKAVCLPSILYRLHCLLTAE
The series can be described thus: filter binding.

The target in series [3] is T4, MBP-ATPase/hel domain of human Dicer with a C-terminal hemagglutinin (HA) epitope tag (human, UniProt Q9UPY3 1-604).
T4 sequence (looked up): T2 sequence
The series can be described thus: co-IP.

In series [4] the target is T5, ATPase/helicase domain of human Dicer (1-604) fused with maltose-binding protein (human, UniProt Q9UPY3 1-604).
T5 sequence (looked up): T2 sequence
The series can be described thus: SEC. For orientation: Size exclusion chromatography separates by hydrodynamic size, large species first.

The target in series [5] is T6, human Dicer C-terminal fragment (hDcr-C: 1235-1922), bacterially expressed (human, UniProt Q9UPY3 1235-1922).
T6 sequence (looked up): T1 sequence
The series can be described thus: SEC.

Sequence of FL-hDicer (full-length human Dicer) (Q9UPY3 whole entry): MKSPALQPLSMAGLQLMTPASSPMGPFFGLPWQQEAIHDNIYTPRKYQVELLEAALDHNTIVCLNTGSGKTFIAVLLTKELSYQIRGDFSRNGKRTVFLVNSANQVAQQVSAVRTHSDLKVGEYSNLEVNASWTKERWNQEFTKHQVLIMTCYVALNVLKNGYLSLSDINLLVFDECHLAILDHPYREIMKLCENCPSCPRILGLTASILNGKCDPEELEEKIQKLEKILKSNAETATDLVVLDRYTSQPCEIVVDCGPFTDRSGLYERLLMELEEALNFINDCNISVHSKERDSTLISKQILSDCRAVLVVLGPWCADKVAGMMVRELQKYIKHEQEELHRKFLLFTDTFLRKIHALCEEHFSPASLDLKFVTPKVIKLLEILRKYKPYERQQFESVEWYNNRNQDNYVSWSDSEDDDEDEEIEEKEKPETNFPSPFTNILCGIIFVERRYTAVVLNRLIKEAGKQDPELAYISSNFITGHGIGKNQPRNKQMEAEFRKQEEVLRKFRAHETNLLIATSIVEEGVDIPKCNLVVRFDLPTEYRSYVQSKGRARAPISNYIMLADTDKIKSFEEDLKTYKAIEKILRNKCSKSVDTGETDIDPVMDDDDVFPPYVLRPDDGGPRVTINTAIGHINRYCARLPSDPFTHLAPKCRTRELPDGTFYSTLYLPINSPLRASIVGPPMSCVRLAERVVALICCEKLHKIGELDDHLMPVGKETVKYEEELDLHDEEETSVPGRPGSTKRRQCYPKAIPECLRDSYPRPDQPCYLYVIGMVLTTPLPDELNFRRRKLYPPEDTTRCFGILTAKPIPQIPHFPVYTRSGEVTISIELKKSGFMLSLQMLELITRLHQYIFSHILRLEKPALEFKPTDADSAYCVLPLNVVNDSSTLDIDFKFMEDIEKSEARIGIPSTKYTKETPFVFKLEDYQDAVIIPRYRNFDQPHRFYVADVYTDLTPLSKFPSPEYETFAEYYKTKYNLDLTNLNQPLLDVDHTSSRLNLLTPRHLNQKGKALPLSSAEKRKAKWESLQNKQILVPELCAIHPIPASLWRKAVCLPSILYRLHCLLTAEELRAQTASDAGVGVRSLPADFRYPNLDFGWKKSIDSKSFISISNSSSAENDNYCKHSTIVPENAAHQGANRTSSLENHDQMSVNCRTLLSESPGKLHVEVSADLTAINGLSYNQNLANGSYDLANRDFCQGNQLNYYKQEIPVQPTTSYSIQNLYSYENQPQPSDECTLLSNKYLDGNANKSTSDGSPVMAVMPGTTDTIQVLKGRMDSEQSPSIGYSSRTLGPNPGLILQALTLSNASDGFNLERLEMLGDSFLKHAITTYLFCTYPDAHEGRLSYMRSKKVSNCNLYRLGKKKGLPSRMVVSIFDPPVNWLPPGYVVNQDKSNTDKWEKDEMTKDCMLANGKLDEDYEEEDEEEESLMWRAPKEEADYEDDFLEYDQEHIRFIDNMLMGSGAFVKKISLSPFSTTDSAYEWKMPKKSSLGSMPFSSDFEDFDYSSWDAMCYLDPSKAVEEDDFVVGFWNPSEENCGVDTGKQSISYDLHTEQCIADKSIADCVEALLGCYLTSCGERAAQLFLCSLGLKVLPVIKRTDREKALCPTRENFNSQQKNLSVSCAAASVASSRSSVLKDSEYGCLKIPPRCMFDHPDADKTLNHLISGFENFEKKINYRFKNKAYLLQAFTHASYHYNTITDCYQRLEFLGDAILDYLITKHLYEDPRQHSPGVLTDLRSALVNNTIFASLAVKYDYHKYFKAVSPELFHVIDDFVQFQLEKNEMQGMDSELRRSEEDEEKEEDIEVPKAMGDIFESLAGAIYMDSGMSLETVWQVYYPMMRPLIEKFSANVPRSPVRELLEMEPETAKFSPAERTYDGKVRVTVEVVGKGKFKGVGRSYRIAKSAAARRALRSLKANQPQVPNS

B1: 37ab (dsRNA)
RNA 1: UGAGGUAGUAGGUUGUAUAGUUUGAAAGUUCACGAUU
RNA 2: UCGUGAACUUUCAAACUAUACAACCUACUACCUCAUU
Consider B1, for which the equilibrium dissociation constant (Kd) in series [1] came out at 300 ± 40 nM; in series [2], 53 ± 8 nM; with MBP-ATPase/hel, 476 ± 30 nM; with DP (DUF283-PAZ), 200 ± 34 nM.

B2: human TAR-RNA binding protein (hTRBP), the larger isoform TRBP2 (natural protein, UniProt Q15633-1 1-366, looked up)
chain: MSEEEQGSGTTTGCGLPSIEQMLAANPGKTPISLLQEYGTRIGKTPVYDLLKAEGQAHQPNFTFRVTVGDTSCTGQGPSKKAAKHKAAEVALKHLKGGSMLEPALEDSSSFSPLDSSLPEDIPVFTAAAAATPVPSVVLTRSPPMELQPPVSPQQSECNPVGALQELVVQKGWRLPEYTVTQESGPAHRKEFTMTCRVERFIEIGSGTSKKLAKRNAAAKMLLRVHTVPLDARDGNEVEPDDDHFSIGVGSRLDGLRNRGPGCTWDSLRNSVGEKILSLRSCSLGSLGALGPACCRVLSELSEEQAFHVSYLDIEELSLSGLCQCLVELSTQPATVCHGSATTREAARGEAARRALQYLKIMAGSK
For B2, the binding result in series [3] and in series [4] was “binds” throughout.

B3: 21ab (siRNA/product mimic) (dsRNA)
RNA 1: UAUACAAUGUGCUAGCUUUCU
RNA 2: AAAGCUAGCACAUUGUAUAGU
For the molecule B3, the equilibrium dissociation constant (Kd) in series [2] was 144 ± 23 nM; with DP (DUF283-PAZ), 220 ± 40 nM.

B4: pre-hlet-7a-1 (structured_RNA)
RNA: UGAGGUAGUAGGUUGUAUAGUUUUAGGGUCACACCCACCACUGGGAGAUAACUAUACAAUCUACUGUCUUACC
On to B4, for which the equilibrium dissociation constant (Kd) in series [2] was 39 ± 5 nM; in the series with MBP-ATPase/hel, 96 ± 10 nM; in the series with DP (DUF283-PAZ), about 1000 nM.

B5: human Dicer DUF283-PAZ fragment (DP: 605-1068) (domain or fragment, UniProt Q9UPY3 605-1068, looked up)
chain: T3 sequence
Regarding B5, the binding result in series [5] is “binds”.
